Measured values published in patent publication US20150023971A1.

Experiments:
[1] = target: T1, …; experiment: SPOT length analysis, dot 7, HRP-S-protein detection
T1 sequence (peptide): RIFRSSDFAKNFV

[2] = target: T2, …; experiment: SPOT length analysis, dot 8, HRP-S-protein detection
T2 sequence (peptide): IFRSSDFAKNFVQ

[3] = target: T3, …; experiment: SPOT length analysis, dot 17, HRP-S-protein detection
T3 sequence (peptide): IFRSSDFAKNF

[4] = target: T4, …; experiment: SPOT length analysis, dot 19, HRP-S-protein detection
T4 sequence (peptide): RSSDFAKNFVQ

[5] = target: T5, …; experiment: SPOT length analysis, dot 2, anti-histidine detection
T5 sequence (peptide): RIFRSSDFAKNFVQT

[6] = target: T6, …; experiment: SPOT length analysis, dot 25, HRP-S-protein detection
T6 sequence (peptide): RSSDFAKNFV

[7] = target: T7, …; experiment: SPOT length analysis, dot 30, HRP-S-protein detection
T7 sequence (peptide): IFRSSDFAK

[8] = target: T8, …; experiment: SPOT length analysis, dot 33, HRP-S-protein detection
T8 sequence (peptide): SSDFAKNFV

[9] = target: T9, …; experiment: SPOT length analysis, dot 34, HRP-S-protein detection
T9 sequence (peptide): SDFAKNFVQ

[10] = target: T10, …; experiment: SPOT length analysis, dot 35, HRP-S-protein detection
T10 sequence (peptide): DFAKNFVQT

RSSDFAKN = target: T11, RSSDFAKN; experiment: SPOT length analysis, dot 40, HRP-S-protein detection
T11 sequence (peptide): RSSDFAKN

SDFAKNFV = target: T12, SDFAKNFV; experiment: SPOT length analysis, dot 42, HRP-S-protein detection
T12 sequence (peptide): SDFAKNFV

RIFRSSD = target: T13, RIFRSSD; experiment: SPOT length analysis, dot 46, HRP-S-protein detection
T13 sequence (peptide): RIFRSSD

IFRSSDF = target: T14, IFRSSDF; experiment: SPOT length analysis, dot 47, HRP-S-protein detection
T14 sequence (peptide): IFRSSDF

[11] = target: T15, …; experiment: SPOT length analysis, dot 5, anti-histidine detection
T15 sequence (peptide): IFRSSDFAKNFVQT

DFAKNFV [12] = target: T16, DFAKNFV; experiment: SPOT length analysis, dot 52, HRP-S-protein detection
T16 sequence (peptide): DFAKNFV

FAKNFVQ = target: T17, FAKNFVQ; experiment: SPOT length analysis, dot 53, HRP-S-protein detection
T17 sequence (peptide): FAKNFVQ

FRSSDF = target: T18, FRSSDF; experiment: SPOT length analysis, dot 58, HRP-S-protein detection
T18 sequence (peptide): FRSSDF

[13] = target: T19, …; experiment: SPOT length analysis, dot 6, anti-histidine detection
T19 sequence (peptide): FRSSDFAKNFVQTD

SSDFAK = target: T20, SSDFAK; experiment: SPOT length analysis, dot 60, HRP-S-protein detection
T20 sequence (peptide): SSDFAK

AKNFVQ = target: T21, AKNFVQ; experiment: SPOT length analysis, dot 64, HRP-S-protein detection
T21 sequence (peptide): AKNFVQ

SSDFA = target: T22, SSDFA; experiment: SPOT length analysis, dot 71, HRP-S-protein detection
T22 sequence (peptide): SSDFA

DFAK [14] = target: T23, DFAK; experiment: SPOT length analysis, dot 85, HRP-S-protein detection
T23 sequence (peptide): DFAK

KNFV [15] = target: T24, KNFV; experiment: SPOT length analysis, dot 88, HRP-S-protein detection
T24 sequence (peptide): KNFV

NFVQ [16] = target: T25, NFVQ; experiment: SPOT length analysis, dot 89, HRP-S-protein detection
T25 sequence (peptide): NFVQ

FVQT [17] = target: T26, FVQT; experiment: SPOT length analysis, dot 90, HRP-S-protein detection
T26 sequence (peptide): FVQT

VQTD [18] = target: T27, VQTD; experiment: SPOT length analysis, dot 91, HRP-S-protein detection
T27 sequence (peptide): VQTD

[19] = target: T7, …; experiment: SPOT length analysis, dot 30, anti-histidine detection
[20] = target: T28, …; experiment: SPOT length analysis, dot 32, anti-histidine detection
T28 sequence (peptide): RSSDFAKNF

[21] = target: T8, …; experiment: SPOT length analysis, dot 33, anti-histidine detection
[22] = target: T29, sortilin peptide RIFRSSDF on SPOT membrane; experiment: SPOT length analysis, dot 37, anti-histidine detection
T29 sequence (peptide, C-terminus anchored to the cellulose membrane through a beta-alanine linker): RIFRSSDF

FRSSDFAK = target: T30, FRSSDFAK; experiment: SPOT length analysis, dot 39, anti-histidine detection
T30 sequence (peptide): FRSSDFAK

AKNFVQTD = target: T31, AKNFVQTD; experiment: SPOT length analysis, dot 45, anti-histidine detection
T31 sequence (peptide): AKNFVQTD

DFAKNFV [23] = target: T16, DFAKNFV; experiment: SPOT length analysis, dot 52, anti-histidine detection
RIFRSS = target: T32, RIFRSS; experiment: SPOT length analysis, dot 56, anti-histidine detection
T32 sequence (peptide): RIFRSS

SDFAKN = target: T33, SDFAKN; experiment: SPOT length analysis, dot 61, anti-histidine detection
T33 sequence (peptide): SDFAKN

KNFVQT = target: T34, KNFVQT; experiment: SPOT length analysis, dot 65, anti-histidine detection
T34 sequence (peptide): KNFVQT

RIFRS = target: T35, RIFRS; experiment: SPOT length analysis, dot 67, anti-histidine detection
T35 sequence (peptide): RIFRS

FAKNF = target: T36, FAKNF; experiment: SPOT length analysis, dot 74, anti-histidine detection
T36 sequence (peptide): FAKNF

AKNFV = target: T37, AKNFV; experiment: SPOT length analysis, dot 75, anti-histidine detection
T37 sequence (peptide): AKNFV

FRSS = target: T38, FRSS; experiment: SPOT length analysis, dot 81, anti-histidine detection
T38 sequence (peptide): FRSS

SSDF = target: T39, SSDF; experiment: SPOT length analysis, dot 83, anti-histidine detection
T39 sequence (peptide): SSDF

SDFA = target: T40, SDFA; experiment: SPOT length analysis, dot 84, anti-histidine detection
T40 sequence (peptide): SDFA

DFAK [24] = target: T23, DFAK; experiment: SPOT length analysis, dot 85, anti-histidine detection
KNFV [25] = target: T24, KNFV; experiment: SPOT length analysis, dot 88, anti-histidine detection
NFVQ [26] = target: T25, NFVQ; experiment: SPOT length analysis, dot 89, anti-histidine detection
FVQT [27] = target: T26, FVQT; experiment: SPOT length analysis, dot 90, anti-histidine detection
VQTD [28] = target: T27, VQTD; experiment: SPOT length analysis, dot 91, anti-histidine detection
FAKNFV = target: T41, FAKNFV; experiment: SPOT length analysis, dot 63, anti-histidine detection
T41 sequence (peptide): FAKNFV

B1: recombinant his-S-tagged pro-domain of human BDNF (residues Ala1-Arg110), from pET-30 Xa/LIC, E. coli (protein, not shown: small tags and cut ends)
chain: APMKEANIRGQGGLAYPGVRTHGTLESVNGPKAGSGLTSLADTFEHVIEELLDEDQKVRPNEENNKDADLYTSRVMLSSQVPLEPPLLFLLEEYKNYLDAANMSMRVRR
B1 was tested, and the BLU Sprotein [1] was 168000 BLU, the BLU Sprotein [2] was 126000 BLU and the BLU Sprotein [3] was 127000 BLU. For the same binder, the BLU Sprotein [4] was 22400 BLU, the BLU His [5] was 113000 BLU and the BLU Sprotein [6] was 25400 BLU. For the same binder, the BLU Sprotein [7] was 25700 BLU, the BLU Sprotein [8] was 19000 BLU and the BLU Sprotein [9] was 18900 BLU. It also gave a BLU Sprotein [10] of 19500 BLU, a BLU Sprotein (RSSDFAKN) of 17200 BLU and a BLU Sprotein (SDFAKNFV) of 15500 BLU. For the same binder, the BLU Sprotein (RIFRSSD) was 21500 BLU, the BLU Sprotein (IFRSSDF) was 27800 BLU and the BLU His [11] was 53400 BLU. For the same binder, the BLU Sprotein (DFAKNFV [12]) was 17400 BLU, the BLU Sprotein (FAKNFVQ) was 20300 BLU and the BLU Sprotein (FRSSDF) was 16900 BLU. For the same binder, the BLU His [13] was 18800 BLU, the BLU Sprotein (SSDFAK) was 15900 BLU and the BLU Sprotein (AKNFVQ) was 14100 BLU. For the same binder, the BLU Sprotein (SSDFA) was 14700 BLU, the BLU Sprotein (DFAK [14]) was 13300 BLU and the BLU Sprotein (KNFV [15]) was 13800 BLU. It also gave a BLU Sprotein (NFVQ [16]) of 13400 BLU, a BLU Sprotein (FVQT [17]) of 13600 BLU and a BLU Sprotein (VQTD [18]) of 13800 BLU. The BLU His [19] was 20800 BLU, the BLU His [20] was 21100 BLU and the BLU His [21] was 18900 BLU. For the same binder, the BLU His [22] was 116000 BLU, the BLU His (FRSSDFAK) was 19000 BLU and the BLU His (AKNFVQTD) was 16000 BLU. It also gave a BLU His (DFAKNFV [23]) of 17300 BLU, a BLU His (RIFRSS) of 122000 BLU and a BLU His (SDFAKN) of 15100 BLU. The BLU His (KNFVQT) was 15400 BLU, the BLU His (RIFRS) was 115000 BLU and the BLU His (FAKNF) was 31900 BLU. The BLU His (AKNFV) was 17500 BLU, the BLU His (FRSS) was 20100 BLU and the BLU His (SSDF) was 14100 BLU. The BLU His (SDFA) was 14200 BLU, the BLU His (DFAK [24]) was 14400 BLU and the BLU His (KNFV [25]) was 14900 BLU. It also gave a BLU His (NFVQ [26]) of 14700 BLU, a BLU His (FVQT [27]) of 15600 BLU and a BLU His (VQTD [28]) of 15100 BLU. For the same binder, the BLU His (FAKNFV) was 142000 BLU.
